Target: Human C1q (human) (UniProt P02745)
Assay: ELISA: antibody coated on the plate at the concentration shown, human C1q added at 10 ug/mL, detection with sheep anti-human C1q-HRP, OD450

Chain of Human C1q (human) (P02745 23-245 limits assumed, chain 1 of 3): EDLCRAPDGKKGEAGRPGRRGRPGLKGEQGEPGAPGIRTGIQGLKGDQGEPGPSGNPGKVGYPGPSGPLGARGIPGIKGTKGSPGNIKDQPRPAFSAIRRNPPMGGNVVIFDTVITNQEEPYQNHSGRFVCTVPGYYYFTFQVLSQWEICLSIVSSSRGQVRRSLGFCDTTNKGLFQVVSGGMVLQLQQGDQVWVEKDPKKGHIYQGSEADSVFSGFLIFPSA
Chain of Human C1q (human) (P02746 28-253 limits assumed, chain 2 of 3, further chain): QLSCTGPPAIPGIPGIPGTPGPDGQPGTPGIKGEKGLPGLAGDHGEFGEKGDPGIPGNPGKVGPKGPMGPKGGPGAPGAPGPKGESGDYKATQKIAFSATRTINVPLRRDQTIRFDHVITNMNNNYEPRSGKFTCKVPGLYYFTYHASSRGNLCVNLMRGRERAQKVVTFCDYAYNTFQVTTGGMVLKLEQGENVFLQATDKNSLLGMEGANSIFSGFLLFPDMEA
Chain of Human C1q (human) (P02747 29-245 limits assumed, chain 3 of 3, further chain): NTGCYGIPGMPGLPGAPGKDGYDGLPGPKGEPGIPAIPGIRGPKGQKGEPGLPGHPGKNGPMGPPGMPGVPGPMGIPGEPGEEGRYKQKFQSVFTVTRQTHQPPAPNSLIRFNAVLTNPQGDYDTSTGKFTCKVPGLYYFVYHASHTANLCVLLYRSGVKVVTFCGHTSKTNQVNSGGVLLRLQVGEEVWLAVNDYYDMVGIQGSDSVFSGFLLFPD

human IgG1 isotype control antibody
EC50 (read off the curve): 2 µg/mL
